Laboratory results published in article PMC6193675 (PLoS ONE, 2018).

B1: reconstructed predicted precursor form of antibody VRC01 (antibody, V domains shown)
VH: not shown
VL: EIVLTQSPATLSLSPGERATLSCRASQSVSSYLAWYQQKPGQAPRLLIYDASNRATGIPARFSGSGSGTDFTLTISSLEPEDFAVYYCQQRSNWPYTFGQGTKLEIK
notes: V(D)J segments with the highest identity to mature VRC01 (IgBLAST), mature HCDR3 kept; Detected with anti-human secondary antibodies; also called precursor for antibody VRC01; VRC01 precursor; source: HEK293T, transfected, purified
B2: reconstructed predicted precursor form of antibody 447-52D (antibody, V domains shown)
VH: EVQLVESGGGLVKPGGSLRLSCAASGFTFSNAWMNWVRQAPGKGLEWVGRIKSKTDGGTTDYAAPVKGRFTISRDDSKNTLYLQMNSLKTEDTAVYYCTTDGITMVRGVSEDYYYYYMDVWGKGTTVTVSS
VL: QSVLTQPPSVSAAPGQKVTISCSGSSSNIGNNYVSWYQQLPGTAPKLLIYDNNKRPSGIPDRFSGSKSGTSATLGITGLQTGDEADYYCGTWDSSLSAGWVFGGGTKLTVL
notes: V(D)J segments with the highest identity to mature 447-52D (IgBLAST), mature HCDR3 kept; Detected with anti-human secondary antibodies; also called precursor for antibody 447-52D; 447-52D precursor; source: HEK293T, transfected, purified

Target: yeast-displayed unmodified gp140 from HIV strain YU2, fused at its C-terminal to Aga2p (HIV-1 group M subtype B, isolate YU-2, UniProt P35961, strain)
Experiment: flow cytometry on cells; yeast cells displaying YU2 Env-Aga2p fusions incubated with 100 nM precursor antibody at 4°C for 16-18 h in PBI (PBS pH 7.2, 1% BSA, protease inhibitors); fluorescent secondary antibody
Settings: one partner purified

Binder	binding result
B1	no binding (tested: 100 nM)
B2	no binding (tested: 100 nM)
